Source: doi:10.1101/2022.11.07.515412
Several values for one entry are separate records, joined by “and”; a condition that tells them apart may be missing. Identical values can stand only once.

Columns and labels:
[1] = molecular target: full-length human vinculin (HV) (human) (UniProt P18206); assay: solid-phase binding assay
[2] = molecular target: vinculin D1D2 (residues 1-484) (human) (UniProt P18206); assay: SEC-MALS
[3] = molecular target: vinculin D1 first subdomain (residues 1-257) (human) (UniProt P18206); assay: native gel or EMSA
[4] = molecular target: vinculin D1D2 (residues 1-484) (human) (UniProt P18206); assay: native gel or EMSA
[5] = molecular target: vinculin D1 first subdomain (residues 1-257) (human) (UniProt P18206); assay: SEC-MALS
[6] = molecular target: vinculin D1D4 (residues 1-834) (human) (UniProt P18206); assay: SEC-MALS
[7] = molecular target: vinculin D1D2 (residues 1-484) (human) (UniProt P18206); assay: SEC-MALS; remark: listed apart in the source

Substance: IpaA derivative containing VBS1-2 (AVBS1-2) (from UniProt P18010 1-633) (domain or fragment)
- EC50 [1]: 3.7 nM
- stoichiometry N [2]: 1 D1D2:AVBS1-2
- stoichiometry N [3]: 1 D1:AVBS1-2
- stoichiometry N [4]: 1 D1D2:AVBS1-2

Substance: IpaA derivative containing VBS1-3 (AVBS1-3) (from UniProt P18010 1-633) (domain or fragment)
- EC50 [1]: 6.1 nM
- stoichiometry N [3]: 1 D1:AVBS1-3
- stoichiometry N [4]: 1 D1D2:AVBS1-3
- stoichiometry N (D1D2:AVBS1-3 molar ratio) [4]: 3
- stoichiometry N ([4]; scale: AVBS1-3 per D1D2): 2
- stoichiometry N (molar ratio, printed as AVBS1-3:D1) [5]: 1 and 2 and 3
- stoichiometry N [6]: 1 D1D4:AVBS1-3

Substance: vinculin D1D2 (residues 1-484) (from UniProt P18206 1-484) (domain or fragment)
- stoichiometry N [2]: 2
- stoichiometry N [7]: 2 and 3

Substance: vinculin D1D4 (residues 1-834) (from UniProt P18206 1-834) (domain or fragment)
- stoichiometry N [6]: 2 and 3
